Consider one molecule from patent publication US20080171038A1 (KALOBIOS PHARMACEUTICALS, published 2008).

In test [1] the target is T1, Recombinant human GM-CSF (human, UniProt P04141 18-144, biotinylated for the SPR assay (sites not given)).
T1 construct: Biotinylated and immobilized on a streptavidin CM5 sensor chip in the SPR assay; used in solution at 0.5 ng/ml in the TF-1 proliferation assay (the species is not restated there); also called hGM-CSF; Granulocyte Macrophage-Colony Stimulating Factor
T1 sequence (P04141 18-144 limits assumed): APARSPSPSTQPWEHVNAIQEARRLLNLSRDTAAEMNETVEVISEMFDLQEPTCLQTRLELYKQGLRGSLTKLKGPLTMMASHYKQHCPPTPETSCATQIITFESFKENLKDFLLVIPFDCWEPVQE
Kind of test: surface plasmon resonance analysis, monovalent affinity; format not described.

Test [2] deals with T1, Recombinant human GM-CSF. Kind of test: cell-based or functional assay.

B1: chimeric 19/2 antibody (antibody, V domains shown)
VH: EVQLQQSGPELVKPGASVKISCKASGYTFTDYNIHWVKQSHGKSLDWIGYIAPYSGGTGYNQEFKNRATLTVDKSSSTAYMELRSLTSDDSAVYYCARRDRFPYYFDYWGQGTTLRVSS
VL: DIVMIQSQKFVSTSVGDRVNITCKASQNVGSNVAWLQQKPGQSPKTLIYSASYRSGRVPDRFTGSGSGTDFILTITTVQSEDLAEYFCQQFNRSPLTFGSGTKLELK
Usually Kd stands for the free concentration of one partner at which half of the binding sites on the other are occupied at equilibrium, for simple one-to-one binding. B1: the Kd in the test with Recombinant human GM-CSF [1] is approximately 0.01 nM. Besides, the “EC50 of inhibition of GM-CSF-dependent proliferation of a human TF-1 leukemia cell line (0.5 ng/ml GM-CSF)” value with Recombinant human GM-CSF [2] worked out at 0.03 nM.
